The record followed here is the Human Domainome abundance scans (Beltran et al. 2025).

The chains are these.
B1: Pre-mRNA-processing factor 40 homolog B, residues 274 to 332; numbered along this chain, Q6NWY9 (parent)
chain: SNREKAKQAFKELLRDKAVPSNASWEQAMKMVVTDPRYSALPKLSEKKQAFNAYKAQRE

± gives the uncertainty stated by the source.

The data set covers variants of B1. Kind of data set: abundance fitness (aPCA) (normalised: wild type 0, dead -1); higher = more abundant; growth selection in yeast, the domain comes from the species named. The conditions noted are these: Homo sapiens.
With P42S, the abundance fitness was -0.131 ± 0.078.

Take P42E: the abundance fitness was 0.018 ± 0.079.

For P42R, the abundance fitness is -0.326 ± 0.059.

Consider P42H, for which the abundance fitness is -0.477 ± 0.22.

Take P42G: the abundance fitness is -0.156 ± 0.053.

Consider P42D, for which the abundance fitness was -0.023 ± 0.1.

As to P42C, the abundance fitness is -0.518 ± 0.1.

With P42K, the abundance fitness was -0.13 ± 0.18.

Turning to P42A, the abundance fitness is -0.147 ± 0.07.

Take P42F: the abundance fitness is -0.749 ± 0.21.

As to P42I, the abundance fitness was -0.283 ± 0.16.

On to P42T, for which the abundance fitness was -0.093 ± 0.11.

For P42W, the abundance fitness was -0.602 ± 0.084.

P42Q: the abundance fitness is -0.316 ± 0.14.

For P42M, the abundance fitness is -0.189 ± 0.11.

In the case of P42N, the abundance fitness is -0.628 ± 0.17.

With P42V, the abundance fitness is -0.418 ± 0.071.

On to P42L, for which the abundance fitness was -0.287 ± 0.086.

In the case of L41M, the abundance fitness is -0.176 ± 0.12.

In the case of L41A, the abundance fitness is -0.451 ± 0.065.

As for L41N, the abundance fitness was -0.443 ± 0.17.

For L41R, the abundance fitness was -0.552 ± 0.061.

With L41H, the abundance fitness is -0.785 ± 0.23.

Turning to L41C, the abundance fitness was -0.438 ± 0.14.

On to L41D, for which the abundance fitness is -0.439 ± 0.12.

Consider L41T, for which the abundance fitness is -0.214 ± 0.094.

As to L41W, the abundance fitness was -0.486 ± 0.081.

Take L41S: the abundance fitness was -0.519 ± 0.065.

With L41V, the abundance fitness was -0.16 ± 0.073.

As to L41P, the abundance fitness was -0.295 ± 0.077.

Turning to L41E, the abundance fitness was -0.189 ± 0.084.

As for L41Y, the abundance fitness was -0.34 ± 0.2.

Turning to L41Q, the abundance fitness was -0.295 ± 0.12.

Regarding L41K, the abundance fitness is -0.372 ± 0.095.

As to L41I, the abundance fitness is -0.268 ± 0.16.

As for Q57E, the abundance fitness is 0.248 ± 0.078.

Regarding Q57H, the abundance fitness was -0.149 ± 0.11.

Regarding Q57A, the abundance fitness was determined as 0.046 ± 0.056.

Consider Q57I, for which the abundance fitness was -0.565 ± 0.1.

Regarding Q57M, the abundance fitness is -0.322 ± 0.091.

Regarding Q57P, the abundance fitness was -0.249 ± 0.071.

In the case of Q57D, the abundance fitness was found to be 0.158 ± 0.097.

Take Q57T: the abundance fitness was -0.165 ± 0.074.

On to Q57L, for which the abundance fitness is -0.527 ± 0.066.

For the variant Q57F, the abundance fitness is -0.514 ± 0.12.

For Q57S, the abundance fitness was found to be 0.027 ± 0.059.

In the case of Q57R, the abundance fitness was -0.286 ± 0.05.

For the variant Q57Y, the abundance fitness is -0.715 ± 0.11.

Take Q57C: the abundance fitness is -0.156 ± 0.075.

Q57W: the abundance fitness is -0.138 ± 0.066.

Consider Q57V, for which the abundance fitness is -0.257 ± 0.057.

As to Q57N, the abundance fitness is -0.163 ± 0.092.

Turning to K48W, the abundance fitness is -0.532 ± 0.13.

With K48C, the abundance fitness is -0.837 ± 0.23.

Turning to K48T, the abundance fitness is -0.45 ± 0.1.

With K48R, the abundance fitness was -0.196 ± 0.078.

As for K48G, the abundance fitness is -0.664 ± 0.077.

Consider K48H, for which the abundance fitness is -0.335 ± 0.2.

With K48D, the abundance fitness is -0.579 ± 0.14.

As for K48E, the abundance fitness is -0.344 ± 0.11.

On to K48A, for which the abundance fitness is -0.49 ± 0.076.

With K48P, the abundance fitness was -0.306 ± 0.13.

Regarding K48F, the abundance fitness is -0.435 ± 0.21.

For K48M, the abundance fitness is -0.01 ± 0.12.

Regarding K48N, the abundance fitness was -0.545 ± 0.16.

For the variant K48L, the abundance fitness worked out at 0.122 ± 0.08.

Regarding K48I, the abundance fitness was -0.047 ± 0.18.

For K48Q, the abundance fitness is -0.161 ± 0.12.

On to K48Y, for which the abundance fitness was -0.259 ± 0.17.

Take K55W: the abundance fitness was -0.947 ± 0.11.

Turning to K55S, the abundance fitness was -0.25 ± 0.075.

On to K55E, for which the abundance fitness was -0.333 ± 0.08.

On to K55P, for which the abundance fitness is -0.359 ± 0.093.

Turning to K55F, the abundance fitness was -0.652 ± 0.17.

K55C: the abundance fitness was found to be 0.12 ± 0.11.

With K55Q, the abundance fitness was -0.239 ± 0.12.

Regarding K55Y, the abundance fitness was -0.644 ± 0.18.

As to K55D, the abundance fitness was -0.29 ± 0.11.

For the variant K55I, the abundance fitness was -0.11 ± 0.095.

In the case of K55A, the abundance fitness is -0.304 ± 0.063.

Regarding K55V, the abundance fitness is -0.139 ± 0.061.

For K55R, the abundance fitness was -0.18 ± 0.057.

In the case of K55H, the abundance fitness is -0.258 ± 0.19.

As for K55T, the abundance fitness is -0.242 ± 0.091.

Consider K55N, for which the abundance fitness is -0.337 ± 0.12.

With K55M, the abundance fitness is -0.356 ± 0.1.

On to F51K, for which the abundance fitness was -0.371 ± 0.22.

For F51W, the abundance fitness was -0.61 ± 0.33.

Regarding F51S, the abundance fitness was -0.463 ± 0.41.

Turning to F51G, the abundance fitness was -0.28 ± 0.35.

As to N52W, the abundance fitness is -0.431 ± 0.085.

For the variant N52H, the abundance fitness is -0.053 ± 0.18.

Take N52A: the abundance fitness is -0.09 ± 0.079.

As to N52R, the abundance fitness is -0.053 ± 0.066.

Turning to N52D, the abundance fitness is -0.038 ± 0.12.

As for N52Q, the abundance fitness turned out to be 0.062 ± 0.15.

With N52M, the abundance fitness was found to be 0.039 ± 0.18.

On to N52Y, for which the abundance fitness is -0.21 ± 0.14.

As for N52S, the abundance fitness is -0.072 ± 0.075.

Regarding N52K, the abundance fitness was found to be 0.031 ± 0.12.

Regarding N52L, the abundance fitness is -0.04 ± 0.092.

Consider N52P, for which the abundance fitness is -0.367 ± 0.096.

N52E: the abundance fitness stood at 0.253 ± 0.073.

For the variant N52V, the abundance fitness is -0.11 ± 0.083.

On to N52T, for which the abundance fitness was -0.231 ± 0.1.

Regarding N52F, the abundance fitness is -0.901 ± 0.49.

For the variant N52G, the abundance fitness was -0.282 ± 0.065.

Regarding N52C, the abundance fitness is -0.129 ± 0.15.

For A40Q, the abundance fitness is -0.417 ± 0.34.

A40V: the abundance fitness is -0.075 ± 0.15.

Turning to A40R, the abundance fitness was -0.304 ± 0.13.

Consider A40P, for which the abundance fitness was -0.675 ± 0.23.

Take A40G: the abundance fitness is -0.206 ± 0.14.

With A40M, the abundance fitness worked out at 0.177 ± 0.33.

A40T: the abundance fitness was -0.312 ± 0.27.

For the variant A40D, the abundance fitness is -0.739 ± 0.34.

For A40E, the abundance fitness is -0.42 ± 0.19.

For the variant A40L, the abundance fitness is 0.008 ± 0.12.

In the case of A40K, the abundance fitness is -0.27 ± 0.22.

In the case of A40Y, the abundance fitness was -0.368 ± 0.27.

Regarding A40S, the abundance fitness is 0.005 ± 0.19.

As to A40W, the abundance fitness is -0.588 ± 0.18.

In the case of S45K, the abundance fitness is -0.117 ± 0.1.

Consider S45W, for which the abundance fitness is -0.427 ± 0.095.

Consider S45E, for which the abundance fitness is -0.027 ± 0.1.

Consider S45G, for which the abundance fitness is -0.265 ± 0.062.

Consider S45P, for which the abundance fitness is -0.369 ± 0.1.

S45T: the abundance fitness is -0.211 ± 0.086.

With S45I, the abundance fitness is -0.458 ± 0.15.

Consider S45L, for which the abundance fitness was -0.541 ± 0.092.

As to S45A, the abundance fitness is -0.136 ± 0.078.

Take S45R: the abundance fitness is -0.303 ± 0.072.

On to S45F, for which the abundance fitness was -0.233 ± 0.14.

For the variant S45Q, the abundance fitness is -0.15 ± 0.11.

On to S45V, for which the abundance fitness was -0.457 ± 0.078.

Consider S45C, for which the abundance fitness is -0.484 ± 0.18.

Regarding S45D, the abundance fitness was -0.097 ± 0.098.

With S45H, the abundance fitness is -0.016 ± 0.22.

As for E46Q, the abundance fitness is -0.147 ± 0.15.

As for E46F, the abundance fitness is -1.03 ± 0.15.

Take E46L: the abundance fitness was -0.73 ± 0.085.

Consider E46G, for which the abundance fitness is -0.694 ± 0.055.

With E46A, the abundance fitness is -0.466 ± 0.07.

With E46K, the abundance fitness is -0.939 ± 0.17.

For E46R, the abundance fitness is -1.04 ± 0.072.

As for E46I, the abundance fitness was -0.872 ± 0.17.

E46S: the abundance fitness is -0.716 ± 0.083.

E46P: the abundance fitness was -0.817 ± 0.11.

For the variant E46V, the abundance fitness was -0.672 ± 0.073.

Consider E46C, for which the abundance fitness was -0.519 ± 0.12.

For E46T, the abundance fitness was -0.631 ± 0.11.

E46Y: the abundance fitness is -0.755 ± 0.19.

E46H: the abundance fitness is -0.724 ± 0.18.

For the variant E46D, the abundance fitness amounted to 0.027 ± 0.14.

As for E46M, the abundance fitness was -0.413 ± 0.095.

Regarding E46N, the abundance fitness is -0.566 ± 0.15.

Regarding Y54E, the abundance fitness is -0.363 ± 0.36.

Y54L: the abundance fitness is -0.085 ± 0.4.

For the variant L44F, the abundance fitness was -0.574 ± 0.31.

As to L44Q, the abundance fitness is -0.219 ± 0.086.

As for L44M, the abundance fitness was -0.087 ± 0.1.

As to L44N, the abundance fitness was -0.448 ± 0.19.

For the variant L44R, the abundance fitness is -0.36 ± 0.062.

As for L44T, the abundance fitness was -0.337 ± 0.12.

Turning to L44D, the abundance fitness was -0.288 ± 0.13.

For L44I, the abundance fitness is -0.101 ± 0.13.

Regarding L44Y, the abundance fitness was -0.809 ± 0.22.
